Molecular target: thioredoxin (1–73) (E. coli, UniProt P0AA25 2-74 = thioredoxin)
Experiment: magic angle spinning solid-state NMR

Chain of thioredoxin (1–73) (P0AA25 2-74): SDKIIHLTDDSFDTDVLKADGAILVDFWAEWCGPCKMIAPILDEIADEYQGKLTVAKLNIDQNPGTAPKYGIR

GIPTLLLFKNGEVAATKVGALSKGQLKEFLDANLA (domain or fragment, E. coli, UniProt P0AA25 75-109, looked up) [thioredoxin (74–108)]
binding result: binds

From article PMC4890720 (Methods in molecular biology (Clifton, N.J.), 2012)
